The target in series [1] is affinity purified BACE1 (BACE1-myc, wild type), P56817.
In series [2] the target is BACE1Arg (Lys-to-Arg mutant form of BACE1), P56817.

Here are results for two proteins from patent US20090136977.

affinity purified BACE1 (BACE1-myc, wild type), P56817, sequence (P56817 22-501): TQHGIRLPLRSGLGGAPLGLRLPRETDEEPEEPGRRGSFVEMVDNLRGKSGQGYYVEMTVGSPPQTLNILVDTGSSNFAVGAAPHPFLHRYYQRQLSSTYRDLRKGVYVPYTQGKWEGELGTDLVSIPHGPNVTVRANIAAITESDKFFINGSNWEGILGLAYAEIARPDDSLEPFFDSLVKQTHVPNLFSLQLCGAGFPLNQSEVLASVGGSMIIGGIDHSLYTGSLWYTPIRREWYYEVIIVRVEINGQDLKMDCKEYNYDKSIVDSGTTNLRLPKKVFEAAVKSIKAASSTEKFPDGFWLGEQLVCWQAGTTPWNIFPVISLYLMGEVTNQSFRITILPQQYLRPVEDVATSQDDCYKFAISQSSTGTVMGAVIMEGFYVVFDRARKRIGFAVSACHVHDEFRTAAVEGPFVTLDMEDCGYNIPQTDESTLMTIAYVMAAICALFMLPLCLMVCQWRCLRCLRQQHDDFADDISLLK
BACE1Arg (Lys-to-Arg mutant form of BACE1), P56817, sequence (P56817 other isoform, or with tags, fused parts or gaps mutant): as the sequence (P56817 22-501) above, with K105R, K254R, K258R, K264R, K278R, K279R, K286R counted along it

B1: ATase2 (acetyltransferase 2) with a myc tag at the C-terminus (protein)
chain: MAPCHIRKYQESDRQWVVGLLSRGMAEHAPATFRQLLKLPRTLILLLGGPLALLLVSGSWLLALVFSISLFPALWFLAKKPWTEYVDMTLCTDMSDITKSYLSERGSCFWVAESEEKVVGMVGALPVDDPTLREKRLQLFHLFVDSEHRRQGIAKALVRTVLQFARDQGYSEVILDTGTIQLSAMALYQSMGFKKTGQSFFCVWARLVALHTVHFIYHLPSSKVGSL
B1: in series [1], the “acetylation of BACE1 with non-radiolabeled acetylCoA, Western blot with anti-acetylated lysine” value is “there was a marked increase in the acetylation of both the immature and partially-mature forms of BACE1”.

B2: ATase1 (acetyltransferase 1) with a myc tag at the C-terminus (protein)
chain: MAPYHIRKYQESDRKSVVGLLSRGMAEHAPATFRRLLKLPRTLILLLGGALALLLVSGSWILALVFSLSLLPALWFLAKKPWTRYVDIALRTDMSDITKSYLSECGSCFWVGESEEKVVGTVGALPVDDPTLREKRLQLFHLSVDNEHRGQGIAKALVRTVLQFARDQGYSEVVLDTSNIQLSAMGLYQSLGFKKTGQSFFHVWARLVDLHTVHFIYHLPSAQAGRL
For B2, the “in vitro acetylation of BACE1 with [3H]acetylCoA, scintillation counting” value in series [2] was “purified ATase1 was able to acetylate BACE1WT but not BACE1Arg”. Besides, in series [1], the “acetylation of BACE1 with non-radiolabeled acetylCoA, Western blot with anti-acetylated lysine” value is “clearly indicate that ATase1 can acetylate BACE1”; the “acetyltransferase activity of ERGIC fractions (acceptor: affinity purified BACE1)” value was “ERGIC fractions from ATase1-expressing cells displayed increased (~2-fold) acetyltransferase activity”; the “average cpm/assay ([3H]acetyl incorporated into BACE1)” value is “The average cpm/assay for ATase1 was 1737±486”; the “in vitro acetylation of BACE1 with [3H]acetylCoA, scintillation counting” value is given as “purified ATase1 was able to acetylate BACE1WT but not BACE1Arg”.
